# Results published in the supplement of paper PMC10065799, “High-throughput profiling of sequence recognition by tyrosine kinases and SH2 domains using bacterial peptide display” (eLife, 2023).
# Tested on: AncSZ;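 further: 11-residue human phosphosite peptides and single-mutation variants displayed on the E. coli surface, counted by deep sequencing, each peptide's frequency after selection divided by its frequency in the unselected input library; frequency after pTyr selection over input frequency; kinase dosed for 20-30% of maximal phosphorylation in three min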
# Test: phosphorylation enrichment, bacterial display (enrichment ratio); higher = better substrate or ligand; peptides without Tyr show the background
# 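Wherever SH2 binding enrichment of the phosphorylated peptide, bacterial display is given: peptide library displayed on the E. coli surface as eCPX fusions, selected cells deep-sequenced, score is each peptide's frequency after selection divided by its frequency in the input.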
row,Sequence,phosphorylation enrichment
1,YCRHNYGAVES [HLA-DRB1_Y112_V114A],0.658
2,LHQSTYQRFDV [SLC7A14_Y693_YF],1.31
3,LIHLHYIRKDY [BBS4_Y43],1.21
4,REAMEYLESKQ [BTK_Y511_C506R],1.62
5,RAILNYIASKY [GSTA3_Y74],1.44
6,SVGGLYRDMGA [CBX8_Y321_G317V],0.699
7,FAELMYTGFWH [ASS1_Y322_V321M],2.17
8,CLLHCYFSQIH [MCM3AP_Y873_R878H],0.886
9,TDHLRYFDSNK [ARAP1_Y359],1.04
10,KDDEKYLDVIR [MTM1_Y260],0.961
11,IINENYDYLKG [NUP98_Y1664],0.846
12,GGGCGYNRSSG [FUS_Y232_G230C],0.663
13,NNIDFYKKTTN [FGFR2_Y657_YF],0.637
14,PLDGEYFTPQI [TP53_Y327_L330P],6.68
15,AIQDAYMHITS [ADCY10_Y318],0.671
16,TQKLAYVELQQ [CENPF_Y700_M701V],1.07
17,EVDELYREAPI [MYL12B_Y143],1.27

row,Sequence,phosphorylation enrichment
1,RLSPEYKQNEI [GJB1_Y243],0.82
2,ELTAKYLNYYR [P3H4_Y181_Q186R],0.639
3,REGAKYVSHGA [ASS1_Y113],0.5
4,RYVTRHIYNRE [HLA-DQB1_Y62_Y62H],0.966
5,SFGESYDNSKS [MAN1B1_Y60_N59S],0.813
6,LLANAYIFVVQ [L1CAM_Y418_YF],1.46
7,PDMHSYMVRFN [GRIN2D_Y732_YF],0.991
8,KAPPTYDTVLQ [CYP3A4_Y347],0.686
9,HHLSTYTKMLF [CHST8_Y251_R247H],1.39
10,NMRSTYAKLAA [SEC22B_Y193_H190R],0.563
11,LASLIYNFVLF [AQP6_Y231],1.73
12,VNCHQYDGLVG [ATP2A2_Y407_E412G],0.931
13,AAGGRYDGLLG [HARS2_Y364_V368L],0.631
14,YGIAQYCCRMG [LRRK2_Y2023],0.983
15,LHQSTYQRYDV [SLC7A14_Y693],0.341
16,CPTIHYNFMCN [TP53_Y234_T230P_YF],1.09

# Biological target: Grb2 SH2 (UniProt P62993)
# Sequence (P62993 whole entry, looked up): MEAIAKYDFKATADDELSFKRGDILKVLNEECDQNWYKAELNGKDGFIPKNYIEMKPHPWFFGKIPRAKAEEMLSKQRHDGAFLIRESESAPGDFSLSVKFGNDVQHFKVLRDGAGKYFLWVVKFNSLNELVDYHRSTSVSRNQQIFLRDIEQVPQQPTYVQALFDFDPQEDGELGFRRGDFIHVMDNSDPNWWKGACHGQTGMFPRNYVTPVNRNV
# Test: SH2 binding enrichment of the phosphorylated peptide, bacterial display (enrichment ratio); higher = better substrate or ligand; peptides without Tyr show the background
row,Sequence,SH2 binding enrichment
1,YCRHNYGAVES [HLA-DRB1_Y112_V114A],0.902
2,LHQSTYQRFDV [SLC7A14_Y693_YF],1.03
3,LIHLHYIRKDY [BBS4_Y43],1.69
4,REAMEYLESKQ [BTK_Y511_C506R],0.706
5,RAILNYIASKY [GSTA3_Y74],1.19
6,SVGGLYRDMGA [CBX8_Y321_G317V],0.72
7,FAELMYTGFWH [ASS1_Y322_V321M],0.918
8,CLLHCYFSQIH [MCM3AP_Y873_R878H],2.04
9,TDHLRYFDSNK [ARAP1_Y359],0.968
10,KDDEKYLDVIR [MTM1_Y260],0.874
11,IINENYDYLKG [NUP98_Y1664],0.751
12,GGGCGYNRSSG [FUS_Y232_G230C],0.802
13,NNIDFYKKTTN [FGFR2_Y657_YF],0.729
14,PLDGEYFTPQI [TP53_Y327_L330P],0.816
15,AIQDAYMHITS [ADCY10_Y318],0.825
16,TQKLAYVELQQ [CENPF_Y700_M701V],0.874
17,EVDELYREAPI [MYL12B_Y143],0.867

row,Sequence,SH2 binding enrichment
1,RLSPEYKQNEI [GJB1_Y243],0.749
2,ELTAKYLNYYR [P3H4_Y181_Q186R],2.44
3,REGAKYVSHGA [ASS1_Y113],0.602
4,RYVTRHIYNRE [HLA-DQB1_Y62_Y62H],0.718
5,SFGESYDNSKS [MAN1B1_Y60_N59S],0.928
6,LLANAYIFVVQ [L1CAM_Y418_YF],1.31
7,PDMHSYMVRFN [GRIN2D_Y732_YF],0.909
8,KAPPTYDTVLQ [CYP3A4_Y347],0.887
9,HHLSTYTKMLF [CHST8_Y251_R247H],1.11
10,NMRSTYAKLAA [SEC22B_Y193_H190R],0.636
11,LASLIYNFVLF [AQP6_Y231],1.11
12,VNCHQYDGLVG [ATP2A2_Y407_E412G],0.785
13,AAGGRYDGLLG [HARS2_Y364_V368L],0.785
14,YGIAQYCCRMG [LRRK2_Y2023],1.21
15,LHQSTYQRYDV [SLC7A14_Y693],0.772
16,CPTIHYNFMCN [TP53_Y234_T230P_YF],1.41

# Biological target: c-Src SH2
# Test: as above
row,Sequence,SH2 binding enrichment
1,YCRHNYGAVES [HLA-DRB1_Y112_V114A],1.34
2,LHQSTYQRFDV [SLC7A14_Y693_YF],0.897
3,LIHLHYIRKDY [BBS4_Y43],1.71
4,REAMEYLESKQ [BTK_Y511_C506R],0.491
5,RAILNYIASKY [GSTA3_Y74],1.17
6,SVGGLYRDMGA [CBX8_Y321_G317V],0.393
7,FAELMYTGFWH [ASS1_Y322_V321M],0.538
8,CLLHCYFSQIH [MCM3AP_Y873_R878H],1.38
9,TDHLRYFDSNK [ARAP1_Y359],0.507
10,KDDEKYLDVIR [MTM1_Y260],0.515
11,IINENYDYLKG [NUP98_Y1664],0.728
12,GGGCGYNRSSG [FUS_Y232_G230C],0.531
13,NNIDFYKKTTN [FGFR2_Y657_YF],0.515
14,PLDGEYFTPQI [TP53_Y327_L330P],0.45
15,AIQDAYMHITS [ADCY10_Y318],1.27
16,TQKLAYVELQQ [CENPF_Y700_M701V],0.932
17,EVDELYREAPI [MYL12B_Y143],0.475

row,Sequence,SH2 binding enrichment
1,RLSPEYKQNEI [GJB1_Y243],0.817
2,ELTAKYLNYYR [P3H4_Y181_Q186R],0.666
3,REGAKYVSHGA [ASS1_Y113],0.415
4,RYVTRHIYNRE [HLA-DQB1_Y62_Y62H],0.414
5,SFGESYDNSKS [MAN1B1_Y60_N59S],0.437
6,LLANAYIFVVQ [L1CAM_Y418_YF],0.396
7,PDMHSYMVRFN [GRIN2D_Y732_YF],0.474
8,KAPPTYDTVLQ [CYP3A4_Y347],2.28
9,HHLSTYTKMLF [CHST8_Y251_R247H],2.54
10,NMRSTYAKLAA [SEC22B_Y193_H190R],1.67
11,LASLIYNFVLF [AQP6_Y231],0.692
12,VNCHQYDGLVG [ATP2A2_Y407_E412G],11.1
13,AAGGRYDGLLG [HARS2_Y364_V368L],0.545
14,YGIAQYCCRMG [LRRK2_Y2023],0.806
15,LHQSTYQRYDV [SLC7A14_Y693],1.16
16,CPTIHYNFMCN [TP53_Y234_T230P_YF],2.71

# Biological target: SHP2-C SH2
# Test: as above
row,Sequence,SH2 binding enrichment
1,YCRHNYGAVES [HLA-DRB1_Y112_V114A],0.704
2,LHQSTYQRFDV [SLC7A14_Y693_YF],0.635
3,LIHLHYIRKDY [BBS4_Y43],1.88
4,REAMEYLESKQ [BTK_Y511_C506R],0.678
5,RAILNYIASKY [GSTA3_Y74],0.747
6,SVGGLYRDMGA [CBX8_Y321_G317V],0.53
7,FAELMYTGFWH [ASS1_Y322_V321M],0.816
8,CLLHCYFSQIH [MCM3AP_Y873_R878H],1.53
9,TDHLRYFDSNK [ARAP1_Y359],0.714
10,KDDEKYLDVIR [MTM1_Y260],0.64
11,IINENYDYLKG [NUP98_Y1664],0.812
12,GGGCGYNRSSG [FUS_Y232_G230C],0.632
13,NNIDFYKKTTN [FGFR2_Y657_YF],0.45
14,PLDGEYFTPQI [TP53_Y327_L330P],0.725
15,AIQDAYMHITS [ADCY10_Y318],0.742
16,TQKLAYVELQQ [CENPF_Y700_M701V],1.75
17,EVDELYREAPI [MYL12B_Y143],0.719

row,Sequence,SH2 binding enrichment
1,RLSPEYKQNEI [GJB1_Y243],0.933
2,ELTAKYLNYYR [P3H4_Y181_Q186R],0.948
3,REGAKYVSHGA [ASS1_Y113],0.322
4,RYVTRHIYNRE [HLA-DQB1_Y62_Y62H],0.64
5,SFGESYDNSKS [MAN1B1_Y60_N59S],0.568
6,LLANAYIFVVQ [L1CAM_Y418_YF],0.605
7,PDMHSYMVRFN [GRIN2D_Y732_YF],0.548
8,KAPPTYDTVLQ [CYP3A4_Y347],0.556
9,HHLSTYTKMLF [CHST8_Y251_R247H],3.88
10,NMRSTYAKLAA [SEC22B_Y193_H190R],9.73
11,LASLIYNFVLF [AQP6_Y231],0.989
12,VNCHQYDGLVG [ATP2A2_Y407_E412G],0.686
13,AAGGRYDGLLG [HARS2_Y364_V368L],0.633
14,YGIAQYCCRMG [LRRK2_Y2023],0.936
15,LHQSTYQRYDV [SLC7A14_Y693],0.694
16,CPTIHYNFMCN [TP53_Y234_T230P_YF],1.97
